Source: patent US20250011363A1, “OPTIMIZED SHORTENED PEPTIDE THAT BINDS TO ACETYLCHOLINE RECEPTOR, AND USE THEREOF” (SKINMED CO., LTD., priority 2021, published 2025)

B1: 6mer-2-1190 (peptide)
peptide: KACIRR
B2: 6mer-2-1183 (peptide)
peptide: RENNRK
B3: 6mer-2-1192 (peptide)
peptide: KHKNKR
B4: 6mer-2-1188 (peptide)
peptide: RAPARR
B5: 6mer-2-1195 (peptide)
peptide: KMTERK
B6: 6mer-2-1198 (peptide)
peptide: RMSHRR
B7: 6mer-2-1193 (peptide)
peptide: REKIRR
B8: 6mer-2-1186 (peptide)
peptide: KEKFRR
B9: 6mer-2-1191 (peptide)
peptide: KKADRK
B10: 6mer-2-1194 (peptide)
peptide: KYCDRK
B11: 6mer-2-1197 (peptide)
peptide: KNCIKK
B12: 6mer-2-1185 (peptide)
peptide: RIDAKK
B13: 6mer-2-1184 (peptide)
peptide: KFWVRR
B14: 6mer-2-1187 (peptide)
peptide: RTADRK
B15: 6mer-2-1189 (peptide)
peptide: KTAPKK
B16: 6mer-2-1196 (peptide)
peptide: RESKKR
B17: 5mer-669 (peptide)
peptide: RNPER
B18: 5mer-957 (peptide)
peptide: RDCER
B19: 5mer-954 (peptide)
peptide: KTEVK
B20: 5mer-963 (peptide)
peptide: RAPNK
B21: 5mer-656 (peptide)
peptide: KATGR
B22: 5mer-664 (peptide)
peptide: KPTWR
B23: 5mer-663 (peptide)
peptide: RATPR
B24: 5mer-657 (peptide)
peptide: KDNDR
B25: 5mer-968 (peptide)
peptide: RIPHR
B26: 5mer-666 (peptide)
peptide: RHDWR
B27: 5mer-665 (peptide)
peptide: KTWEK
B28: 5mer-959 (peptide)
peptide: KPNMK
B29: 5mer-965 (peptide)
peptide: KMEIR
B30: 5mer-961 (peptide)
peptide: KIANR
B31: 5mer-960 (peptide)
peptide: RNPGK
B32: 5mer-653 (peptide)
peptide: KTTWK
B33: 5mer-958 (peptide)
peptide: RKWKR
B34: 5mer-652 (peptide)
peptide: RCAAR
B35: 5mer-950 (peptide)
peptide: KDADR
B36: 5mer-667 (peptide)
peptide: RDCHR
B37: 5mer-967 (peptide)
peptide: KKTHK
B38: 5mer-649 (peptide)
peptide: RYSFK
B39: 5mer-956 (peptide)
peptide: KPTWK
B40: 5mer-951 (peptide)
peptide: RYMGR
B41: 5mer-964 (peptide)
peptide: KYTDR
B42: 5mer-952 (peptide)
peptide: KTMHK
B43: 5mer-962 (peptide)
peptide: RIWKR
B44: 5mer-655 (peptide)
peptide: RKCIR
B45: 5mer-660 (peptide)
peptide: KFDVK
B46: 5mer-966 (peptide)
peptide: RPSAK
B47: 5mer-949 (peptide)
peptide: KMKMK
B48: 5mer-955 (peptide)
peptide: KNADK
B49: 5mer-659 (peptide)
peptide: KIHEK
B50: 5mer-662 (peptide)
peptide: KIEEK
B51: 5mer-650 (peptide)
peptide: RPEDK
B52: 5mer-953 (peptide)
peptide: RKMAR
B53: 5mer-661 (peptide)
peptide: RCNMK
B54: 5mer-654 (peptide)
peptide: KEWNR
B55: 5mer-668 (peptide)
peptide: RPHAK
B56: 5mer-651 (peptide)
peptide: RFTVR
B57: 5mer-658 (peptide)
peptide: KKWGR

The binders below were run against acetylcholine receptor (assay: SPR, peptide at 10 uM).
Work on B1 yielded a Binding affinity of 32 RU. Work on B2 yielded a Binding affinity of 35 RU. For B3, the Binding affinity was 40 RU. B4 gave a Binding affinity of 22 RU. Work on B5 yielded a Binding affinity of 25 RU. Binder B6 has a Binding affinity of 27 RU. In the case of B7, the Binding affinity is reported as 43 RU. B8 gave a Binding affinity of 27 RU. B9 showed a Binding affinity of 35 RU. B10 showed a Binding affinity of 35 RU. In the case of B11, the Binding affinity is reported as 23 RU. For B12, the Binding affinity was 42 RU. With B13 the Binding affinity was 22 RU. Work on B14 yielded a Binding affinity of 36 RU. For B15, the Binding affinity was 40 RU. B16 was tested, and the Binding affinity was 39 RU.

Each binder was assayed against acetylcholine receptor (assay: SPR, peptide at 10 uM on acetylcholine receptor).
Work on B17 yielded a Binding affinity (RU) of 24 RU. For B18, the Binding affinity (RU) was 30 RU. B19 gave a Binding affinity (RU) of 23 RU. B20 gave a Binding affinity (RU) of 24 RU. B21 was tested, and the Binding affinity (RU) was 13 RU. For B22, the Binding affinity (RU) was 17 RU. In the case of B23, the Binding affinity (RU) is reported as 31 RU. B24 was tested, and the Binding affinity (RU) was 22 RU. Work on B25 yielded a Binding affinity (RU) of 11 RU. B26 showed a Binding affinity (RU) of 18 RU. B27 showed a Binding affinity (RU) of 26 RU. With B28 the Binding affinity (RU) was 29 RU. B29 was tested, and the Binding affinity (RU) was 30 RU. With B30 the Binding affinity (RU) was 32 RU. With B31 the Binding affinity (RU) was 14 RU. B32 gave a Binding affinity (RU) of 16 RU. Work on B33 yielded a Binding affinity (RU) of 11 RU. B34 was tested, and the Binding affinity (RU) was 23 RU. B35 gave a Binding affinity (RU) of 22 RU. With B36 the Binding affinity (RU) was 16 RU. B37 gave a Binding affinity (RU) of 26 RU. Work on B38 yielded a Binding affinity (RU) of 20 RU. Work on B39 yielded a Binding affinity (RU) of 19 RU. B40 was tested, and the Binding affinity (RU) was 18 RU. Work on B41 yielded a Binding affinity (RU) of 22 RU. Work on B42 yielded a Binding affinity (RU) of 12 RU. With B43 the Binding affinity (RU) was 23 RU. Binder B44 has a Binding affinity (RU) of 15 RU. Work on B45 yielded a Binding affinity (RU) of 11 RU. Work on B46 yielded a Binding affinity (RU) of 32 RU. In the case of B47, the Binding affinity (RU) is reported as 26 RU. In the case of B48, the Binding affinity (RU) is reported as 14 RU. B49 showed a Binding affinity (RU) of 22 RU. For B50, the Binding affinity (RU) was 28 RU. Work on B51 yielded a Binding affinity (RU) of 22 RU. B52 showed a Binding affinity (RU) of 23 RU. With B53 the Binding affinity (RU) was 30 RU. In the case of B54, the Binding affinity (RU) is reported as 27 RU. In the case of B55, the Binding affinity (RU) is reported as 27 RU. With B56 the Binding affinity (RU) was 11 RU. B57 showed a Binding affinity (RU) of 31 RU.
